From doi:10.1101/854497 (bioRxiv, 2020)
Values joined by “and” are separate entries in the source; they are usually repeats but may differ in a detail not shown here. Equal values may be shown once.

B1: His6-Pex17p (natural protein, yeast, UniProt P40155 1-199, looked up)
chain: MTSINSFPRNIDWPSNIGIKKIEGTNPTVNAIKGLLYNGGSIYAFLYFVIAMFVEPTLQKQYQQRNDFSLFVLLRLRRIIAQLQKRLVMTPVSSLGFNEQNNFVERSTQTSDDNIIREDNSHWAEMIYQLQNMKQELQYFNRSSGQPSESIDDFVFQIKMVTDQVELTDRSRAFSNKSRNIIQGIREIKGWFVNGQVPR
B2: StrepII-Pex14p(M51L) (natural protein, yeast, UniProt P53112 1-341, looked up)
chain: MSDVVSKDRKALFDSAVSFLKDESIKDAPLLKKIEFLKSKGLTEKEIEIALKEPKKDGIVGDEVSKKIGSTENRASQDMYLYEAMPPTLPHRDWKDYFVMATATAGLLYGAYEVTRRYVIPNILPEAKSKLEGDKKEIDDQFSKIDTVLNAIEAEQAEFRKKESETLKELSDTIAELKQALVQTTRSREKIEDEFRIVKLEVVNMQNTIDKFVSDNDGMQELNNIQKEMESLKSLMNNRMESGNAQDNRLFSISPNGIPGIDTIPSASEILAKMGMQEESDKEKENGSDANKDDNAVPAWKKAREQTIDSNASIPEWQKNTAANEISVPDWQNGQVEDSIP
B3: Pex14p_(119-341) (domain or fragment, yeast, UniProt P53112 119-341, looked up)
chain: VIPNILPEAKSKLEGDKKEIDDQFSKIDTVLNAIEAEQAEFRKKESETLKELSDTIAELKQALVQTTRSREKIEDEFRIVKLEVVNMQNTIDKFVSDNDGMQELNNIQKEMESLKSLMNNRMESGNAQDNRLFSISPNGIPGIDTIPSASEILAKMGMQEESDKEKENGSDANKDDNAVPAWKKAREQTIDSNASIPEWQKNTAANEISVPDWQNGQVEDSIP

How the values were obtained:
StrepII-Pex14p(M51L) = molecular target: B2; assay: cryo-EM structure
His6-Pex17p = molecular target: B1; assay: native MS
native MS + SEC-MALS = molecular target: the molecule itself; assay: native MS + SEC-MALS
cross-linking = molecular target: the molecule itself; assay: cross-linking

## B1
StrepII-Pex14p(M51L)
  binding result: binds

## B2
His6-Pex17p
  stoichiometry N: 3 Pex14p:Pex17p and 6 Pex14p:Pex17p and 4.5 Pex14p:Pex17p
Native MS + SEC-MALS
  stoichiometry N: 3 copies

## B3
cross-linking
  stoichiometry N: 3
